Experimental data from FireProtDB (doi:10.1046/j.1432-1327.1999.00751.x).
Where “and” joins values, the source holds several entries; their conditions need not be identical. Equal values may be shown once.

B1: Azurin, P00282 (parent)
chain: MLRKLAAVSLLSLLSAPLLAAECSVDIQGNDQMQFNTNAITVDKSCKQFTVNLSHPGNLPKNVMGHNWVLSTAADMQGVVTDGMASGLDKDYLKPDDSRVIAHTKLIGSGEKDSVTFDVSKLKEGEQYMFFCTFPGHSALMKGTLTLK

Variants of: B1
Conditions: Pseudomonas aeruginosa (strain ATCC 15692 / DSM 22644 / CIP 104116 / JCM 14847 / LMG 12228 / 1C / PRS 101 / PAO1); pH 7.2; 20 °C; GdnHCl; CD + Fluorescence; Tris-HCl 50 mM; reversible: yes; structure 5AZU; whole UniProt chain shown

| Variant | ddG of mutation (higher = less stable) | denaturant m value | denaturant midpoint (higher = more stable) | unfolding free energy |
| --- | --- | --- | --- | --- |
| MLRKLAAVSLLSLLSAPLLAAECSVDSQGNDQMQFNTNAITVDKSCKQFTVNLSHPGNLPKNVMGHNWVLSTAADMQGVVTDGMASGLDKDYLKPDDSRVIAHTKLIGSGEKDSVTFDVSKLKEGEQYMFFCTFPGHSALMKGTLTLK [I27S] | 3.6 kcal/mol and 3 kcal/mol | 3.6 kcal/mol/M and 3.4 kcal/mol/M | 1.61 M and 1.02 M | 5.8 kcal/mol and 3.4 kcal/mol |
| MLRKLAAVSLLSLLSAPLLAAECSVDIQGNDQMQFNTNAITVDKSCKQFTVNLSHPGNLPKNVMGHNWVLSTAADMQGVVTDGMASGLDKDYLKPDDSRVIAHTKLIGSGEKDSVTFDVSKLKEGEQYMSFCTFPGHSALMKGTLTLK [F130S] | 4.6 kcal/mol and 3.7 kcal/mol | 3.6 kcal/mol/M and 3.2 kcal/mol/M | 1.24 M and 0.86 M | 4.8 kcal/mol and 2.7 kcal/mol |
